Here are results for two sequences from US9327008B2, “Cell-permeant peptide-based inhibitor of kinases” (Purdue Research Foundation, priority 2008, dated 2016).

Common to all, as to type: biochemical
In one assay the target is T1, JAK3 (Homo sapiens, UniProt P52333).
T1 construct: purchased Millipore (assay service)
T1 sequence (P52333 1-1124): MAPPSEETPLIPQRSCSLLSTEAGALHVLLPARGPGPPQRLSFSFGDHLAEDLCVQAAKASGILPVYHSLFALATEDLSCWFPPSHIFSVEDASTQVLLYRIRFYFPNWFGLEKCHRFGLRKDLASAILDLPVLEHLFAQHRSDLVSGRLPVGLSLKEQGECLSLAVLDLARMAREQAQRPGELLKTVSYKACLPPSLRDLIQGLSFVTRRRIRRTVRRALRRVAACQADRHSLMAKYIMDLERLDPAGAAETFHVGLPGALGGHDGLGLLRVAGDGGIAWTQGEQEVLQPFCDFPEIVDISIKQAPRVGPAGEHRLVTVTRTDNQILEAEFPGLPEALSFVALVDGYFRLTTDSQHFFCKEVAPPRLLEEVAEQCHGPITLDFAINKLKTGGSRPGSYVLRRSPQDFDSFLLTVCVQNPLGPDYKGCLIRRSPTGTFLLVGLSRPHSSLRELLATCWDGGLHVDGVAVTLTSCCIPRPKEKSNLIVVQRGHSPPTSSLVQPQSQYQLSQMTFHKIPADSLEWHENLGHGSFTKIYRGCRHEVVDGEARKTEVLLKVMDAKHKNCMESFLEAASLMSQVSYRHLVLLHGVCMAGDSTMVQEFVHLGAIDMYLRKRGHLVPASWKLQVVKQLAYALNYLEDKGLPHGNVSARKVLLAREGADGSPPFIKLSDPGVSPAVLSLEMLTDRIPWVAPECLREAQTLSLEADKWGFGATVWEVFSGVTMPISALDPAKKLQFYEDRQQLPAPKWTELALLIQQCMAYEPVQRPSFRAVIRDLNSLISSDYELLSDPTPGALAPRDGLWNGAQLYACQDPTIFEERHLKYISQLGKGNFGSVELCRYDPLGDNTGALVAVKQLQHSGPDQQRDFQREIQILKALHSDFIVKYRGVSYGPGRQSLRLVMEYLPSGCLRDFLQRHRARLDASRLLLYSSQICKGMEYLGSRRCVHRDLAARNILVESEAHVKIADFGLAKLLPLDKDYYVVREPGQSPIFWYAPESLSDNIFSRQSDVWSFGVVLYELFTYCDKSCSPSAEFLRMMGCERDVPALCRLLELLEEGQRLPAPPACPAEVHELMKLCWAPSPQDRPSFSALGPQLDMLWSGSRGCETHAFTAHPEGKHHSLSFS
The experiment in a line: Millipore radiometric kinase activity assay, JAK3 (h). As to the method:
(§1) A commercial radiometric assay service (Millipore, Billerica, Mass.) was used to test the specificity and potency of peptides containing a coupled transduction domain and therapeutic domain, hereinafter “complete peptides”). In these assays, if the kinase is not inhibited by an inhibitor peptide, a positively charged substrate is phosphorylated with a radiolabeled phosphate group from an ATP.
In a final reaction volume of 25 μL, JAK3 (h) (5-10 mU) is incubated with 8 mM MOPS pH 7.0, 0.2 mM EDTA, 500 μM […] [SEQ ID NO: 58], 10 mM MgAcetate and [γ-^33P-ATP] (specific activity approx. 500 cpm/pmol, concentration as required). The reaction is initiated by the addition of the MgATP mix. After incubation for 40 minutes at room temperature, the reaction is stopped by the addition of 5 μL of a 3% phosphoric acid solution. 10 μL of the reaction is then spotted onto a P30 filtermat and washed three times for 5 minutes in 75 mM phosphoric acid and once in methanol prior to drying and scintillation counting.
(§2) IC50 values for inhibitor peptides were determined using Millipore's IC50Profiler Express service. The IC50 value was estimated from a 10-point curve of one-half log dilutions. For peptides tested for specificity, the concentration of the peptides that inhibited approximately 95% of MK2 activity was chosen to profile against a battery of kinases related to MK2, cell viability, or human disease from MilliporeKinaseProfiler service. In both assays, compounds were supplied in dimethylsulfoxide (DMSO). Every kinase activity measurement was conducted in duplicate.
(§3) Therapeutic inhibitor peptides were assayed for activity against human kinases related to MK2, cell viability, or human disease. The assays were performed using concentrations of therapeutic inhibitor peptides that yielded 2% to 8% of normal MK2 activity. Error is reported as the standard deviation between 2 samples, and “c” is rat AMPK whereas all other kinases used are human kinases.

The next assay concerns the target T2, KDR (Homo sapiens, UniProt P35968).
T2 construct: purchased Millipore (assay service)
The experiment in a line: Millipore radiometric kinase activity assay, KDR (h). As for the experimental part: as §1
In a final reaction volume of 25 μL, KDR (h) (5-10 mU) is incubated with 8 mM MOPS pH 7.0, 0.2 mM EDTA, 0.33 mg/mL myelin basic protein, 10 mM MgAcetate and [γ-^33P-ATP] (specific activity approx. 500 cpm/pmol, concentration as required). The reaction is initiated by the addition of the MgATP mix. After incubation for 40 minutes at room temperature, the reaction is stopped by the addition of 5 μL of a 3% phosphoric acid solution. 10 μL of the reaction is then spotted onto a P30 filtermat and washed three times for 5 minutes in 75 mM phosphoric acid and once in methanol prior to drying and scintillation counting.
as §2, §3

A further assay concerns the target T3, PKA (Homo sapiens, UniProt P17612).
T3 construct: purchased Millipore (radiometric assay service)
The experiment in a line: Millipore radiometric kinase activity assay, PKA (h). As for the experimental part:
as §1
In a final reaction volume of 25 μL, PKA (h) (5-10 mU) is incubated with 8 mM MOPS pH 7.0, 0.2 mM EDTA, 30 μM LRRASLG [SEQ ID NO: 50] (Kemptide), 10 mM MgAcetate and [γ-^33P-ATP] (specific activity approx. 500 cpm/pmol, concentration as required). The reaction is initiated by the addition of the MgATP mix. After incubation for 40 minutes at room temperature, the reaction is stopped by the addition of 5 μL of a 3% phosphoric acid solution, 10 μL of the reaction is then spotted onto a P30 filtermat and washed three times for 5 minutes in 50 mM phosphoric acid and once in methanol prior to drying and scintillation counting.
as §2, §3

T2 sequence (P35968 20-1356): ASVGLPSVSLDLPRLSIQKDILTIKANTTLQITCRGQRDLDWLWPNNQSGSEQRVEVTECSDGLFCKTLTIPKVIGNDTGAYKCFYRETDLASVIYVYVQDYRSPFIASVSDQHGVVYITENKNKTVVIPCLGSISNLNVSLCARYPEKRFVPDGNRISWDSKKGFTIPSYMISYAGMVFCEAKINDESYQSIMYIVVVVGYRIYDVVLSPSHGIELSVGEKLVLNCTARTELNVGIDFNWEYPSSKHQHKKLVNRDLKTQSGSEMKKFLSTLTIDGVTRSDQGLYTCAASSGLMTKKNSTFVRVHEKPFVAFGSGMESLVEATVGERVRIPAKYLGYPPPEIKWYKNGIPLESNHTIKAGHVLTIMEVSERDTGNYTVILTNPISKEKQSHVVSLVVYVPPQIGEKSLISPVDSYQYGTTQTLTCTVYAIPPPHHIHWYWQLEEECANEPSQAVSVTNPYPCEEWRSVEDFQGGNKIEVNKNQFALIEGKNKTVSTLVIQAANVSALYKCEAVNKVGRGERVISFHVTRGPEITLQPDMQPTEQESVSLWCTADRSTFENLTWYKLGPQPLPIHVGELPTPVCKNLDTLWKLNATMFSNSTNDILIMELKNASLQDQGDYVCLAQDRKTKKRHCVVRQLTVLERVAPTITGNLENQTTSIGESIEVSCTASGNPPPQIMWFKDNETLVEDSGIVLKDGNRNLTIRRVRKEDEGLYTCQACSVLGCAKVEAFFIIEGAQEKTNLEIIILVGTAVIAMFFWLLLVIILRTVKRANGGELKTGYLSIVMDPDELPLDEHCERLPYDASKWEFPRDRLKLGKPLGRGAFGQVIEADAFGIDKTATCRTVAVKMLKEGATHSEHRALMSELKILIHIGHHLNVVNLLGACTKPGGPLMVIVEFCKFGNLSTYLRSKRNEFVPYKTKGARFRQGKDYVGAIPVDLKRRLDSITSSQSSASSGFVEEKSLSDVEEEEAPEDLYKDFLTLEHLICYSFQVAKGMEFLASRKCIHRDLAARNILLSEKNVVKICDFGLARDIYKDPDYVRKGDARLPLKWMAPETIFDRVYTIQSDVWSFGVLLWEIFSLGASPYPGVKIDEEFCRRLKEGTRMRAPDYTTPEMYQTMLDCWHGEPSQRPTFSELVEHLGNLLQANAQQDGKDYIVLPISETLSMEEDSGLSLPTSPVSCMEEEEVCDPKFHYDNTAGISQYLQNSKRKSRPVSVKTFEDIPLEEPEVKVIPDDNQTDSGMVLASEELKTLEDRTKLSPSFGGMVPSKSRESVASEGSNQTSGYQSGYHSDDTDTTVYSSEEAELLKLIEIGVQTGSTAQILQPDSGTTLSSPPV

Consider KAFAKLAARLYRKALARQLGVAA, for which the “JAK3 Kinase Activity (%) (+SD %)” value with JAK3 (peptide 100 μM) is listed as 91 (8) %. Moreover, the “KDR Kinase Activity (%) (+SD %)” value with KDR (peptide 100 μM) is given as 56 (4) %. Besides, the “PKA Kinase Activity (%) (+SD %)” value with PKA (peptide 100 μM) is recorded as 103 (1) %.
For the sequence WLRRIKAWLRRIKALNRQLGVAA, the “JAK3 Kinase Activity (%) (+SD %)” value is listed as 85 (5) % with JAK3 (peptide 30 μM) and 102 (2) % in the assay with JAK3 (peptide 100 μM). Moreover, the results for the “KDR Kinase Activity (%) (+SD %)” value with KDR (peptide 30 μM) and with KDR (peptide 100 μM) were 27 (0) % and 78 (6) %, respectively. The “PKA Kinase Activity (%) (+SD %)” value is 80 (1) % with PKA (peptide 30 μM) and 76 (8) % with PKA (peptide 100 μM).
